Results reported in patent publication US20240209065A1.
Read-outs that look alike come from different tables or passages of the source.

Columns and labels:
[1] = target: SARS-CoV-2 Omicron BA.2 RBD, aa 319-541, C-terminal 6xHis-tag (SARS-CoV-2) (UniProt P0DTC2)
[2] = target: SARS-CoV-2 Omicron BA.4/5 RBD, aa 319-541, C-terminal 6xHis-tag (SARS-CoV-2) (UniProt P0DTC2)
[3] = target: SARS-CoV-2 Omicron BA.2 RBD, aa 319-541, C-terminal 6xHis-tag (SARS-CoV-2) (UniProt P0DTC2); test: ELISA, plates coated with RBD
[4] = target: S protein of authentic SARS-CoV-2 Omicron BA.1 virus (SARS-CoV-2) (UniProt P0DTC2); test: cell-based or functional assay
[5] = target: S protein of authentic SARS-CoV-2 Omicron BA.5 virus (SARS-CoV-2) (UniProt P0DTC2); test: cell-based or functional assay

DXP-604 IgG (antibody)
EC50 [1]: 9.48 nM
EC50 [2]: 1.6 nM
EC50 [3]: 9.48 nM
IC50, microneutralization assay with authentic virus [4]: 22.9 nM
IC50, microneutralization assay with authentic virus [5]: 12.4 nM
